# The DeepSol protein solubility set
# Test: soluble on expression in E. coli; label from the status in PepcDB or PDB records
row,Sequence,soluble on expression in E. coli
1,TDTLTRDNGAVVGDNQNSQTAGAQGPVLLQDVQLLQKLQRFDRERIPERVVHARGTGVKGEFTASADISDLSKATVFKSGEKTPVFVRFSSVVHGNHSPETLRDPHGFATKFYTADGNWDLVGNNFPTFFIRDAIKFPDMVHAFKPDPRTNLDNDSRRFDFFSHVPEATRTLTLLYSNEGTPAGYRFMDGNGVHAYKLVNAKGEVHYVKFHWKSLQGIKNLDPKEVAQVQSKDYSHLTNDLVGAIKKGDFPKWDLYVQVLKPEELAKFDFDPLDATKIWPDVPEKKIGQMVLNKNVDNFFQETEQVAMAPANLVPGIEPSEDRLLQGRVFSYADTQMYRLGANGLSLPVNQPKVAVNNGNQDGALNTGHTTSGVNYEPSRLEPRPADDKARYSELPLSGTTQQAKITREQNFKQAGDLYRSYSAKEKTDLVQKFGESLADTLTESKNIMLSYLYKEDPNYGTRVAEVAKGDLSKVKSLAASLKD,soluble
2,MFQLSVQDIHPGEKAGDKEEAIRQVAAALVQAGNVAEGYVNGMLAREQQTSTFLGNGIAIPHGTTDTRDQVLKTGVQVFQFPEGVTWGDGQVAYVAIGIAASSDEHLGLLRQLTHVLSDDSVAEQLKSATTAEELRALLMGEKQSEQLKLDNEMLTLDIVASDLLTLQALNAARLKEAGAVDATFVTKAINEQPLNLGQGIWLSDSAEGNLRSAIAVSRAANAFDVDGETAAMLVSVAMNDDQPIAVLKRLADLLLDNKADRLLKADAATLLALLTSDDAPTDDVLSAEFVVRNEHGLHARPGTMLVNTIKQFNSDITVTNLDGTGKPANGRSLMKVVALGVKKGHRLRFTAQGADAEQALKAIGDAIAAGLGEGA,soluble
3,MTNYVKKVSIEDFGCQFLHTAHWNNRLRTTGGRFFPNDRHLDFNPKIYREFGIDIFRKIVRHELCHYHLYIQGKGYQHRDKAFKELLEKVDGLRYTPRVTAVKVNYHHYSCQSCGQVYRRRRRVNLRKFACGYCHGRLIESFLEHHHHHH,not soluble
4,MKLQQLKYALEVYQHNLNVSEAAEALFTSQPGISKQIKLLEEEIGIQIFIRSGKRVVSVSQPGKVVLDIAERILRDVQNIKNIGSEFTGQDSGSLTVATTHTQARYALPLIVADFVKRYPKVNLTIKQGSPAAIARMVTSGEADLAIVTERIDDHPELGKLPCYDWTHAVIVPNDHPLLECRNPLRIEDLARFPLITYEFAFNAGSSIARAFSKARLEQPDVALAAADTDVLKTYVRLGLGVGLMAKMAYNPDTDGDLQLVDAAHLFEPSPTWIALRSDTYLRGYAYDFIQAFAPHLTREKVDRILYTPISEDFSI,soluble
5,MEALIAYSGRRFARPHYYANAHERDEVDIVPVQMAMHDARAAGTGIDREGFQIVKHTSAVTDFADREQVARIHMREIEELVRAETGADMVHVGAPGLLRFSEKSGRAGSLNNSMPARFAHIDISDRTAQAFGERGANGRPFVRCAAYNVWRAISPPPQDVPLAFCDARSLAPGDLIEADAVFDEPGKPEWSFEGLVVAHNPAHRWYFFPDMRIDEAVLFKTNDSDPARAHHVPHVAFDLPDCPADAPPRVSIEMRATAYWWALEHHHHHH,soluble
6,AMATAPRPLREQYLHFQPISTRWHDNDIYGHVNNVTYYAFFDTAVNTYLIERGGLDIQGGEVIGLVVSSSCDYFAPVAFPQRIEMGLRVARLGNSSVQYELALFLEGQREACAAGRFVHVFVERRSSRPVAIPQELRDALAALQSSAQ,soluble
7,MVPRTSSSNPTLRKTSPTMADIDITRSHSLGLDDGRAAVGRVADKLETELGVDAEWTGDTLQFSGQGADGHIEVEADAVHVAINLSAFLQPMRSRVQAEAEDYLDQSLQSQS,not soluble
8,STFSKAAPSVPSKPSDCNFISNFYSHSRLHHISMWKCELTEFVNTLQRQSNGIFPGREKLKKMKTGRSALVVTDTGDMSVLNSPRHQSCIMHVDMDCFFVSVGIRNRPDLKGKPVAVTSNRGTGRAPLRPGANPQLEWQYYQNKILKGKAADIPDSSLWENPDSAQANGIDSVLSRAEIASCSYEARQLGIKNGMFFGHAKQLCPNLQAVPYDFHAYKEVAQTLYETLASYTHNIEAVSCDEALVDITEILAETKLTPDEFANAVRMEIKDQTKCAASVGIGSNILLARMATRKAKPDGQYHLKPEEVDDFIRGQLVTNLPGVGHSMESKLASLGIKTCGDLQYMTMAKLQKEFGPKTGQMLYRFCRGLDDRPVRTEKERKSVSAEINYGIRFTQPKEAEAFLLSLSEEIQRRLEATGMKGKRLTLKIMVRKPGAPVETAKFGGHGICDNIARTVTLDQATDNAKIIGKAMLNMFHTMKLNISDMRGVGIHVNQLVPTNLNPST,soluble
